Data taken from doi:10.1101/192500 (bioRxiv, 2018).

B1: OmpC (wild type, in the purified OmpC-MlaA-His complex) (natural protein, E. coli)
chain: AEVYNKDGNKLDLYGKVDGLHYFSDNKDVDGDQTYMRLGFKGETQVTDQLTGYGQWEYQIQGNSAENENNSWTRVAFAGLKFQDVGSFDYGRNYGVVYDVTSWTDVLPEFGGDTYGSDNFMQQRGNGFATYRNTDFFGLVDGLNFAVQYQGKNGNPSGEGFTSGVTNNGRDALRQNGDGVGGSITYDYEGFGIGGAISSSKRTDAQNTAAYIGNGDRAETYTGGLKYDANNIYLAAQYTQTYNATRVGSLGWANKAQNFEAVAQYQFDFGLRPSLAYLQSKGKNLGRGYDDEDILKYVDVGATYYFNKNMSTYVDYKINLLDDNQFTRDAGINTDNIVALGLVYQF

Legend:
SEC-MALS = target: the molecule itself; assay: SEC-MALS
[1] = target: MlaA-His (from dmlaA-His plasmids, in purified OmpC-MlaA-His complexes) (E. coli) (UniProt P76506); assay: SEC-MALS
Sequence of MlaA-His (from dmlaA-His plasmids, in purified OmpC-MlaA-His complexes) (E. coli) (P76506 18-251, one chain of several): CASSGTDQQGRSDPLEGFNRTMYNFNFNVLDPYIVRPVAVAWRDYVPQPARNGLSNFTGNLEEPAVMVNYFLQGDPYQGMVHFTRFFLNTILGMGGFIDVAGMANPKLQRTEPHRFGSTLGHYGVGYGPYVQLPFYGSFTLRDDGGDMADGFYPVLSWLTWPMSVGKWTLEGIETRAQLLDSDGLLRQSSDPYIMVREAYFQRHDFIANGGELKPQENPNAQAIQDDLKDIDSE

[2] = target: the molecule itself; assay: temperature titration with SDS-PAGE
[3] = target: B1; assay: SEC

Binder | binding result [2] | further results
B1 | – | stoichiometry N (SEC-MALS): 3; stoichiometry N (MlaA per OmpC trimer) [1]: 1
OmpC_(R92L) (natural protein, E. coli, UniProt P06996 22-367, looked up) AEVYNKDGNKLDLYGKVDGLHYFSDNKDVDGDQTYMRLGFKGETQVTDQLTGYGQWEYQIQGNSAENENNSWTRVAFAGLKFQDVGSFDYGLNYGVVYDVTSWTDVLPEFGGDTYGSDNFMQQRGNGFATYRNTDFFGLVDGLNFAVQYQGKNGNPSGEGFTSGVTNNGRDALRQNGDGVGGSITYDYEGFGIGGAISSSKRTDAQNTAAYIGNGDRAETYTGGLKYDANNIYLAAQYTQTYNATRVGSLGWANKAQNFEAVAQYQFDFGLRPSLAYLQSKGKNLGRGYDDEDILKYVDVGATYYFNKNMSTYVDYKINLLDDNQFTRDAGINTDNIVALGLVYQF | binds | –
OmpC_(R92A) (natural protein, E. coli, UniProt P06996 22-367, looked up) AEVYNKDGNKLDLYGKVDGLHYFSDNKDVDGDQTYMRLGFKGETQVTDQLTGYGQWEYQIQGNSAENENNSWTRVAFAGLKFQDVGSFDYGANYGVVYDVTSWTDVLPEFGGDTYGSDNFMQQRGNGFATYRNTDFFGLVDGLNFAVQYQGKNGNPSGEGFTSGVTNNGRDALRQNGDGVGGSITYDYEGFGIGGAISSSKRTDAQNTAAYIGNGDRAETYTGGLKYDANNIYLAAQYTQTYNATRVGSLGWANKAQNFEAVAQYQFDFGLRPSLAYLQSKGKNLGRGYDDEDILKYVDVGATYYFNKNMSTYVDYKINLLDDNQFTRDAGINTDNIVALGLVYQF | binds | –
OmpC_(G19W) (natural protein, E. coli, UniProt P06996 22-367, looked up) AEVYNKDGNKLDLYGKVDWLHYFSDNKDVDGDQTYMRLGFKGETQVTDQLTGYGQWEYQIQGNSAENENNSWTRVAFAGLKFQDVGSFDYGRNYGVVYDVTSWTDVLPEFGGDTYGSDNFMQQRGNGFATYRNTDFFGLVDGLNFAVQYQGKNGNPSGEGFTSGVTNNGRDALRQNGDGVGGSITYDYEGFGIGGAISSSKRTDAQNTAAYIGNGDRAETYTGGLKYDANNIYLAAQYTQTYNATRVGSLGWANKAQNFEAVAQYQFDFGLRPSLAYLQSKGKNLGRGYDDEDILKYVDVGATYYFNKNMSTYVDYKINLLDDNQFTRDAGINTDNIVALGLVYQF | binds | –
OmpCG19W/R92L (natural protein, E. coli, UniProt P06996 22-367, looked up) AEVYNKDGNKLDLYGKVDWLHYFSDNKDVDGDQTYMRLGFKGETQVTDQLTGYGQWEYQIQGNSAENENNSWTRVAFAGLKFQDVGSFDYGLNYGVVYDVTSWTDVLPEFGGDTYGSDNFMQQRGNGFATYRNTDFFGLVDGLNFAVQYQGKNGNPSGEGFTSGVTNNGRDALRQNGDGVGGSITYDYEGFGIGGAISSSKRTDAQNTAAYIGNGDRAETYTGGLKYDANNIYLAAQYTQTYNATRVGSLGWANKAQNFEAVAQYQFDFGLRPSLAYLQSKGKNLGRGYDDEDILKYVDVGATYYFNKNMSTYVDYKINLLDDNQFTRDAGINTDNIVALGLVYQF | binds | –
MlaA_(D61-K124) peptide (domain or fragment, E. coli, UniProt P76506 61-124, looked up) DYVPQPARNGLSNFTGNLEEPAVMVNYFLQGDPYQGMVHFTRFFLNTILGMGGFIDVAGMANPK | – | binding result [3]: binds
